Measured values taken from publication PMC2777755.
Read-outs that look alike come from different tables or passages of the source. Blank lines part the entries; values can stand above or below the substance they belong to.

Experiments:
[1] = biological target: Fus3 (Saccharomyces cerevisiae) (UniProt P16892); settings: cited from earlier work
[2] = biological target: Fus3 (Saccharomyces cerevisiae) (UniProt P16892); settings: cited from earlier work; remark: listed apart in the source
[3] = biological target: Kss1 (Saccharomyces cerevisiae) (UniProt P14681); settings: cited from earlier work
Chain of UniProt P14681 (P14681 whole entry, the tested form may be a part): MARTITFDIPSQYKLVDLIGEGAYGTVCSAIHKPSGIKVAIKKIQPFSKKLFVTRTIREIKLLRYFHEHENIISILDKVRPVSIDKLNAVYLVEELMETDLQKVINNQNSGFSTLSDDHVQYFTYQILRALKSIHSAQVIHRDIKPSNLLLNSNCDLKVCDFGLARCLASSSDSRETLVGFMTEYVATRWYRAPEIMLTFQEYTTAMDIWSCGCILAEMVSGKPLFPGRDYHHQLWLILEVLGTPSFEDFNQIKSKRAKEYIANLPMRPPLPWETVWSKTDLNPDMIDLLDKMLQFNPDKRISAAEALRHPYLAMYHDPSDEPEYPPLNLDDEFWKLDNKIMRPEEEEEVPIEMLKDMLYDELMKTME

[4] = biological target: Ste5 minimal scaffold domain (Ste5-ms), fluorescein-labeled (S. cerevisiae) (UniProt P32917); test: fluorescence polarisation

Chain of UniProt P16892 (P16892 whole entry): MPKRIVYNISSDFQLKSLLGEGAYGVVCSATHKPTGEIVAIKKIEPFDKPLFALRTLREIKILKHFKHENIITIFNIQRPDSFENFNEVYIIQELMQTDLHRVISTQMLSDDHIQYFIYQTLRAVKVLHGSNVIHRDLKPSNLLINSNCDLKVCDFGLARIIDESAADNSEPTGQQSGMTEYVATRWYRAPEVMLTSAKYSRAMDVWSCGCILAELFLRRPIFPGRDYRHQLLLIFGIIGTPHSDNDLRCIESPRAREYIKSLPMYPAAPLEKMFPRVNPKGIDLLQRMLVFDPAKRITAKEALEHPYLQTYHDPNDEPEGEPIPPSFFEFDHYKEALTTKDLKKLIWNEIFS

Substance: Ste5 288-316 (from UniProt P32917)
Kd [1]: 1000 nM

Substance: Ste7 docking motif (from UniProt P06784)
Kd [2]: 100 nM
Kd [3]: 100 nM

Kd [4]: 75 nM
Substance: MAPKK Ste7 (from UniProt P06784 1-515) (enzyme)
